Measurements: paper PMC10232371, “Enhanced rare-earth separation with a metal-sensitive lanmodulin dimer” (Nature, 2023)

B1: Hansschlegelia quercus lanmodulin (Hans-LanM), residues A24-K133 (natural protein)
chain: ASGADALKALNKDNDDSLEIAEVIHAGATTFTAINPDGDTTLESGETKGRLTEKDWARANKDGDQTLEMDEWLKILRTRFKRADANKDGKLTAAELDSKAGQGVLVMIMK
notes: lanmodulin (LanM) of Hansschlegelia quercus without its native 23-residue signal peptide; expressed with an N-terminal Met that is cleaved, so the first residue is A24; Metal-free (apo) or loaded with rare-earth(III) ions as named in each assay; expressed from pET-29b(+); also called wild-type Hans-LanM; source: E. coli, purified (SEC, dialysed against Chelex 100)

What was measured:
[1] = target: Lanmodulin from Hansschlegelia quercus (Hans-LanM), wild type (Hansschlegelia quercus); assay: ITC; dilutive additions of 150 uM or 540 uM protein with 2 equivalents of La(III) into matched buffer (30 mM MOPS, 100 mM KCl, pH 7.0), 30 °C; no change of heats seen, only an upper limit; dimer to monomers
[2] = target: Lanmodulin from Hansschlegelia quercus (Hans-LanM), wild type (Hansschlegelia quercus); assay: ITC; dilutive additions of 300 uM apo protein into matched buffer (30 mM MOPS, 100 mM KCl, pH 7.0), 30 °C; Dimer Dissociation model; dimer to monomers
[3] = target: Lanmodulin from Hansschlegelia quercus (Hans-LanM), wild type (Hansschlegelia quercus); assay: ITC; dilutive additions of 300 uM protein with 2 equivalents of Dy(III) into matched buffer (30 mM MOPS, 100 mM KCl, pH 7.0), 30 °C; Dimer Dissociation model; dimer to monomers
[4] = target: Lanmodulin from Hansschlegelia quercus (Hans-LanM), wild type (Hansschlegelia quercus); assay: SEC; analytical size-exclusion chromatography of Hans-LanM in the presence of three equivalents of La(III)
[5] = target: Lanmodulin from Hansschlegelia quercus (Hans-LanM), wild type (Hansschlegelia quercus); assay: SEC-MALS; Hans-LanM pre-incubated with 3 equiv. La(III), Nd(III) or Gd(III); 1.2-1.5 mg/mL loaded; buffer B (30 mM MOPS, 100 mM KCl, 5% glycerol, pH 7.0)
[6] = target: the molecule itself; assay: SAXS; La(III)-bound protein from SEC-MALS fractions, 1.5 mg/mL; 30 mM MOPS, 100 mM KCl, 5% glycerol, pH 7.0, 22 C; Porod volume, OLIGOMER and CRYSOL analyses
[7] = target: the molecule itself; assay: SEC; analytical Superdex 75 column (24 mL); protein metalated with 3.0 equiv. La(III)
[8] = target: the molecule itself; assay: SAXS; Nd(III)-bound protein from SEC-MALS fractions, 1.4 mg/mL; 30 mM MOPS, 100 mM KCl, 5% glycerol, pH 7.0, 22 C; Porod volume, OLIGOMER and CRYSOL analyses
[9] = target: the molecule itself; assay: SEC; analytical Superdex 75 column (24 mL); apo protein (590 uM, 100 uL) metalated with 3.0 equiv. Nd(III)

Molecule	Kd [1]	Kd [2]	Kd [3]	stoichiometry N [4]	stoichiometry N [5]	stoichiometry N [6]	stoichiometry N [7]	stoichiometry N [8]	stoichiometry N [9]
Lanmodulin from Hansschlegelia quercus (Hans-LanM), wild type (natural protein)	< 0.4 µM	117 µM	60 µM	2	2	–	–	–	–
B1	–	–	–	–	–	2	2	2	2
